From the supplement of paper PMC7877785
± gives the uncertainty stated by the source.

Test: self-splicing fitness, log relative to wild type (ln ratio); higher = more splicing; Tetrahymena group I intron in knt gene, E. coli kanamycin selection, DiMSum; sequences stand for … in CUCUCU…GGAGGGAAAAGUUAUCAGGCAUGCACCUGGUAGCUAGUCUUUAAACCAAUAGAUUGCAUCGGUUUAAAAGGCAAGACCGUCAAAUUGCGGGAAAGGGGUCAACAGCCGUUCAGUACCAAGUCUCAGGGGAAACUUUGAGAUGGCCUUGCAAAGGGUAUGGUAAUAAGCUGACGGACAUGGUCCUAACCACGCAGCCAAGUCCUAAGUCAACAGAUCUUCUGUUGAUAUGGAUGCAGUUCACAGACUAAAUGUCGGUCGGGGAAGAUGUAUUCUUCUCAUAAGAUAUAGUCGGACCUCUCCUUAAUGGGAGCUAGCGGAUGAAGUGAUGCAACACUGGAGCCGCUGGGAACUAAUUUGUAUGCGAAAGUAUAUUGAUUAGUUUUGGAGUACUCGUGGUCG
In short: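 Six replicate transformations of E. coli BL21(DE3) with a pET-22b(+) library were grown overnight at 37°C or 30°C. The library randomised all eight P1ex-region intron nucleotides, the intron lying in the knt kanamycin-resistance gene, and plates were LB agar with or without 25 μg/mL kanamycin plus 100 μg/mL carbenicillin, 50 μM IPTG and 0.2% rhamnose. Pooled colonies were amplicon-sequenced on an Illumina HiSeq 2500, and fitness is the DiMSum error-weighted combination of wild-type-normalised replicate fold changes, kanamycin versus none.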

Sequence | self-splicing fitness (ln) (30 °C) | self-splicing fitness (ln) (37 °C)
CCGUAGCAAUAUUACGCCCG | -0.871 ± 0.15 | -0.0634 ± 0.21
GAGGAGCAAUAUUACGAUGG | -3.58 ± 0.2 | -2.44 ± 0.22
UGAGAGCAAUAUUACGAAGA | -1.45 ± 0.29 | -2.35 ± 0.42
GGGAAGCAAUAUUACGGCGU | -0.0838 ± 0.13 | -0.241 ± 0.14
AGAUAGCAAUAUUACGACCG | -1.01 ± 0.17 | 0.121 ± 0.32
AGAGAGCAAUAUUACGCGGC | -2.71 ± 0.26 | –
UGCUAGCAAUAUUACGGGUG | -1.79 ± 0.098 | -1.3 ± 0.11
CCGAAGCAAUAUUACGGCAA | -3.61 ± 0.38 | -1.98 ± 0.38
CCUGAGCAAUAUUACGGGAU | -3.46 ± 0.24 | -1.63 ± 0.2
GGUCAGCAAUAUUACGUGUG | -1.39 ± 0.069 | -0.514 ± 0.092
AAAGAGCAAUAUUACGGUUC | – | -2.82 ± 0.36
UAAGAGCAAUAUUACGACUU | -2.79 ± 0.18 | -0.528 ± 0.15
UUGAAGCAAUAUUACGCAUG | -0.179 ± 0.12 | -0.519 ± 0.11
CCGCAGCAAUAUUACGAUGC | -4.08 ± 0.28 | -2.88 ± 0.23
ACGCAGCAAUAUUACGAUAC | -2.56 ± 0.2 | -1.87 ± 0.19
UCGCAGCAAUAUUACGAAGG | -1.85 ± 0.096 | -0.846 ± 0.12
CCUCAGCAAUAUUACGUUCG | -2.69 ± 0.077 | -0.795 ± 0.075
AUUCAGCAAUAUUACGUCGG | -3.16 ± 0.17 | -2.28 ± 0.21
UCAAAGCAAUAUUACGGGCG | -0.842 ± 0.065 | -0.266 ± 0.083
UGCUAGCAAUAUUACGUCGA | -1.18 ± 0.13 | -1.14 ± 0.18

Sequence | self-splicing fitness (ln) (30 °C) | self-splicing fitness (ln) (37 °C)
UAAAAGCAAUAUUACGGUCA | 0.0761 ± 0.086 | 0.333 ± 0.087
AUAAAGCAAUAUUACGGAAU | -1.16 ± 0.077 | -0.475 ± 0.1
CGCAAGCAAUAUUACGCCGG | -0.626 ± 0.12 | -0.476 ± 0.17
AAUGAGCAAUAUUACGUCAU | -2.26 ± 0.2 | -1.02 ± 0.18
AUUUAGCAAUAUUACGCCAC | -3.24 ± 0.48 | -1.36 ± 0.35
GUCCAGCAAUAUUACGUCUA | -0.899 ± 0.11 | -0.668 ± 0.12
GGUUAGCAAUAUUACGAGAG | -2.64 ± 0.44 | -2.45 ± 0.39
UUUAAGCAAUAUUACGGUCU | -2.5 ± 0.14 | -1.66 ± 0.15
UGCUAGCAAUAUUACGAUGG | -1.52 ± 0.067 | -0.47 ± 0.088
CUCAAGCAAUAUUACGUUUG | -2.21 ± 0.12 | -2.8 ± 0.15
GAAAAGCAAUAUUACGGAAA | -2.88 ± 0.27 | -1.55 ± 0.16
GAUUAGCAAUAUUACGCACU | -0.846 ± 0.15 | 0.415 ± 0.18
AUCCAGCAAUAUUACGGAGC | -3.09 ± 0.21 | -2.2 ± 0.24
GUCGAGCAAUAUUACGCACA | -1.76 ± 0.21 | -0.707 ± 0.18
ACUGAGCAAUAUUACGUUCA | -3.87 ± 0.28 | -1.55 ± 0.2
UUCAAGCAAUAUUACGCAUC | -3.87 ± 0.29 | -1.81 ± 0.17
UUUCAGCAAUAUUACGGAGC | -3.25 ± 0.36 | -3.28 ± 0.43
GGAUAGCAAUAUUACGUCGG | -2.62 ± 0.23 | -1.86 ± 0.27
UACGAGCAAUAUUACGUACU | -3.32 ± 0.32 | -1.76 ± 0.22
UUGUAGCAAUAUUACGUCUA | -0.856 ± 0.086 | -0.738 ± 0.11

Sequence | self-splicing fitness (ln) (30 °C) | self-splicing fitness (ln) (37 °C)
CCAAAGCAAUAUUACGGGCG | -1.31 ± 0.065 | -0.301 ± 0.094
CUAUAGCAAUAUUACGAUCU | -3.99 ± 0.39 | -1.91 ± 0.33
CUGCAGCAAUAUUACGCUUG | -3.55 ± 0.2 | -2.25 ± 0.22
AGAGAGCAAUAUUACGUGCU | – | -1.44 ± 0.28
CGUGAGCAAUAUUACGGAUG | -1.55 ± 0.075 | -0.983 ± 0.094
CGCCAGCAAUAUUACGAGAG | -3.58 ± 0.13 | -1.37 ± 0.098
GUAUAGCAAUAUUACGCUGC | -2.6 ± 0.48 | -0.913 ± 0.3
GAAGAGCAAUAUUACGCAUG | -3.45 ± 0.47 | -2.36 ± 0.33
CCAGAGCAAUAUUACGAACU | -3.13 ± 0.35 | -1.86 ± 0.35
UAUCAGCAAUAUUACGGCCC | -2.13 ± 0.28 | -1.05 ± 0.39
ACCGAGCAAUAUUACGCGAU | -2.5 ± 0.14 | -1.73 ± 0.14
UAAAAGCAAUAUUACGGCCC | -2.11 ± 0.34 | -1.28 ± 0.33
GGAGAGCAAUAUUACGGCCU | -2.34 ± 0.29 | -1.19 ± 0.43
AAUGAGCAAUAUUACGACCU | -0.757 ± 0.24 | -0.257 ± 0.41
CGGUAGCAAUAUUACGGCGC | -2.04 ± 0.23 | -1.95 ± 0.24
GAACAGCAAUAUUACGGCGC | -0.147 ± 0.065 | -0.195 ± 0.09
CGGAAGCAAUAUUACGUGAG | -0.991 ± 0.058 | -0.391 ± 0.085
CUCCAGCAAUAUUACGAACG | -1.6 ± 0.15 | -0.22 ± 0.15
GGGCAGCAAUAUUACGGAUC | -0.301 ± 0.057 | 0.486 ± 0.076
CCGAAGCAAUAUUACGUCGG | -3.35 ± 0.2 | -2.59 ± 0.31
